Data from US20250228955A1 (ALBERT EINSTEIN COLLEGE OF MEDICINE, published 2025).
Read-outs that look alike come from different tables or passages of the source.

Assays:
[1] = target: T1, recombinant Strep-tagged SARS-CoV-2 trimeric spike (SARS-CoV-2, UniProt P0DTC2 14-1208)
[2] = target: T2, human epidermal growth factor receptor (EGFR) (human, UniProt P00533 25-645)
[3] = target: T1, recombinant Strep-tagged SARS-CoV-2 …; remark: listed apart in the source
[4] = target: T1, recombinant Strep-tagged SARS-CoV-2 …; remark: listed apart in the source
[5] = target: T2, human epidermal growth factor receptor …; assay: biolayer interferometry
[6] = target: T1, recombinant Strep-tagged SARS-CoV-2 …; remark: listed apart in the source

B1: ODIN-8 (VHH-72.58 with UL-CDR3 from 60H05 bovine IgG in FR2 loop) (bispecific antibody, V domains shown)
VH: MGWFRQNKLKSCPDGYTSGVECRFRGYTCANDGCWRVCSFTTCSGWMPASDTYRREFVATISWSGGSTYYTDSVKGRFTISRDNAKNTVYLQMNSLKPDDTAVYYCAAAGLGTVVSEWDYDYDYWGQGTQVTVSS
Kd [1]: 76.4 nM
koff [1]: 0.012 s⁻¹
kon [1]: 158000 M⁻¹ s⁻¹
Kd [2]: 11.4 nM
koff [2]: 0.00103 s⁻¹
kon [2]: 90500 M⁻¹ s⁻¹

B2: ODIN-1-A56R fusion (ODIN-1 fused to vaccinia virus (VACV) A56R for rVACV display) (bispecific antibody, V domains shown)
VH: MGWFRQTNKKECPEDYTYNPRCPQQYGWSDCDCMGDRFGGYCRQDGCSNYIHRSTREFVATISWSGGSTYYTDSVKGRFTISRDNAKNTVYLQMNSLKPDDTAVYYCAAAGLGTVVSEWDYDYDYWGQGTQVTVSS
EC50 (read off the curve) [3]: ~0.06 µg/mL
EC50 (read off the curve) [4]: ~0.2 µg/mL

B3: VHH-72 (SARS-CoV-2 spike VHH, soluble recombinant) (VHH)
VHH: QVQLQESGGGLVQAGGSLRLSCAASGRTFSEYAMGWFRQAPGKEREFVATISWSGGSTYYTDSVKGRFTISRDNAKNTVYLQMNSLKPDDTAVYYCAAAGLGTVVSEWDYDYDYWGQGTQVTVSS
notes: also called parental VHH-72; VHH 72.58
binding result [5]: no binding
Kd [6]: 460 nM
koff [6]: 0.0364 s⁻¹
kon [6]: 79200 M⁻¹ s⁻¹

B4: VHH-72-A56R fusion (VHH-72 fused to vaccinia virus (VACV) A56R for rVACV display) (VHH)
VHH: B3 VHH
EC50 (read off the curve) [3]: ~0.07 µg/mL
